Source: the DeepSol protein solubility set

Test: soluble on expression in E. coli; label from the status in PepcDB or PDB records

Row | Sequence | soluble on expression in E. coli
1 | MGSDKIHHHHHHMPLRGGVTCRVPSGMWMVPPHCGVWVPGGMLHSNVATANARLFFLFIEPGAADLPNRCCTLSLSPLVRELIIELADQSEVATADSELMTTLLLSALSRMPVEHLHLPLTDEPRLARIASELADDPSDRSTMAQWARRVAMSENSLARLVQHQTGLTFGRWRQQLQLIIAIRSLASGATVQQVSGDLGYESVSAFITMFKKALGTSPSRYLRNFDR | not soluble
2 | MGSDKIHHHHHHMPNMGIEKLYVSQQLTDSAAGMTFTKPQYYKYVQELSLKPKVNSASAYAENRKVDQDTQFDSCDVSINLFQMTSSQRAFMLGQSLAGGGGAIGALNDKAPWITLLYKAPIKVDDTIYYRYGVIYKTQFQPPDDDYKTTEGKPDFSQVPKISGSAQPTEWSFKDGKLEKHPWEWHVDTCDPNCPENIDDTWFNSVSIPSLVTYGSLSLSASSPKDGATGISLDTKPSLTFNNPIMNATSILLYNVSDGATVNTTTSSDSSGKIITITPSTNLVANKNYVLVVQDVTDLYGQTLDTQLIRFTTATAAS | not soluble
3 | MGSDKIHHHHHHMPNQPLIFDTAIAKDKPENIRHPHNACPFCDPGQLTDIIAQDADRIWLLNKFPTLQATWQTIVIEAARHDGDIATYSSAQNRAVFTFALKHWQATIASGRFKSVLCYKNFGPHSGGSLRHPHMQIVGLMAADGYANVTAANLTGYSVLAVDQVQVTVSDRPIMGFVEINVAAPATAIAPLADAVQQVVQYTLNTYFHGQCDSYNLFFYPRDDQIVAKVVPLFNVSPYYIGYRLAQADTPKRMRAIAEEIRQQFERSNLAHSN | not soluble
4 | MGSDKIHHHHHHMPNTFEHLQAAHCENGVTTNLLRNVGVSKMTEPLAFGIGSGLFFIYIPLMKINGGPAIAYRTMPGLIFKRTAQSLGIDVVRKTFRSTIKAQEFLDACIKAGQPVGCQVGVYFLSYFPKEYRFHFNAHNLIVYGKEGDNYLVSDPVMETTNILSTYELERVRFAKGALAPKGQIYFPKPNHEPVSDDKIRKAIVTGVKRNIRDMLHIPGPIAGVSGIKYTGNKIKNWRDKLGIEKAGLYLAQLVRMQEEIGTGGGGFRFIYGAFLQQAHAFHNDDQLLEISKSFTQSGDLWRSAAIQAAGIYKGRITSQADFNVMGDYLLEISELEKKAFKELTKIKWQK | not soluble
5 | MGSDKIHHHHHHMPPFILNSQNVFDYLSSLNLCTLEEGESSKIELKPAKNFNLLITFPEGRKLLVKQERHNLEGKTTGEFVLEWRIHDFVSRFPELNHIRSYLSEAIYFNWENSIIIFNYLDNYRDLMDFYVKENLNLFPTQLANAVGTTLALIHRTSFNCEEYRDFFQNPGESKSNPKTPHLNRGLDRLTPEIFGKVPADGLRFFALYQRYDSLGQAIAQLINSFTPCCLTHNDLKLNNILVSLDWEDIGDENIVRLIDWERGSWGDPANDLGTLIASYLQIWLYSMVTGKSIAIEESLRLAATPLYVLQPSLRELVIAYLTHFPEILEHHPDFLQRVMQFCGLALITAIQAQLQYEKTFGNVGICMLQVAKSLLCRPEASVQTIFGVQLSDLSPVSLSQV | not soluble
6 | MGSDKIHHHHHHMPRLLLVTNDFPPTVGGIQSYLRDFVALLPPEDVVVFASTQDPVAAREFDKSVPYKVVRYSSKLMLPTPQVKKLMVDLIKSEGVSTVWFGAAAPLAVMAPAARAAGAIQIISTTHGHEVGWSMVPGARSVLRFIGQHSDVVTYISDYTLRRFRRAFGEHPKFVHLPSGVDVERFYPVDEKQKFELRDQLGWAEKDKVIVCTSRLVPRKGQDTLIKAFPEIVQRCSEARLVIVGEGRIEGKLRRLAARDQKASSRISFEGRVSEEKMGMMLRGADVFAMPCRTRGGGLDVEGLGIVFLEAQACGVPVIAGDSGGAPETVTPASGVVVNGRDSSSVAHVIVDLVQQPAALMSMGHAGRQHVVDHWTWEIMGARLKSLIL | not soluble
7 | MGSDKIHHHHHHMPRPFRLSCALLHEPVSSNLMDLKYGDTSFSLAIPPERLMGVIRPSVPAPDSDPAAIISEALDRCADAIATFRTGERVVIVTSDITRYTGSEIYLPLLVERLAAAGVRERDIEIVVALGIHRKQTEHEHQRITGPLYGRIRITDHECDNPGKLVLIGRTSTGVDVVVNRTVAEADRVILTGTIGFHYFAGFGGGRKSILPGVAGRASCMASHYAVLNPGEGTGRNPLATTGNLEGNPVHQTMVEACAMVNPEFILNTVLSPAKRIIAAFAGHWREAHEEGCRFYADRFSFPLKKPADLVVVSCGGYPKDINVIQSHKSMEYGCQALRRGGVMVLLAQCRDGYGNATFFDWFRFRELDAFEARLRSHYEINGQTAFSLLQKARTFSIILVSDLPPEEVRTMGMTPARTLDEAMTAAASLLPSDYTAYVVPEGGTVLPIMM | not soluble
8 | MGSDKIHHHHHHMPRTIRIYRPTELPADEALPVIYMHDGQNVFSGETASFGKGWEVHHALHTVQLHAMIVAIDSPDDGMDRYDEYAPWTDEALLMRTAYPSHRKTIGGNGKQYMHWIVHELKPYIDAQYATIPTDTTMIGSSMGGVISLYGLFAYPEVFTRVAALSTAGWANFSSLLEFIERSPGLSEDHRCYMDVGTKEVSGPMTENDYLHTNEVLAKAVQKKVQQAAYEIIPGAVHHETEWAKRMPDILRFLFSS | not soluble
9 | MGSDKIHHHHHHMPSDAINEGQAQDAPRMRAAEYVRMSTEHQQYSTENQADKIREYAVRRGIDIIKTYADEGKSGLRIDGRQALQSLIRDVEAGTADFDIILVYDVSRWGRFQDADESAYYEYICRRAGIQVAYCAEQFENDGSPVSTIVKGVKRAMAGEYSRELSAKVFAGQCRLIELGYRQGGPAGYGLRRTLVDVKGEVKAELSRGEHKSLQTDRVILRPGPDEEVTIVNQIYRWFIDDGMYESEIAGRLNGMRVRTDLDREWTRATVREVLTNEKYVGHNVYNRVSFKLKKLRVVNPPEMWIRRDAAFPGVVPPDVFYTAQGIIRARAHRYTNEELIERLRGLYRNRGFLSGVVINETEDMPCAAVYAHRFGSLVRAYQLVGFTPDRDYRYVEINRALRRMHPDVLRQIEGQIAGLGGIVQRDAATDVLIVNGEFTVSIVLARCHEAAGMPNRWKIRLDSSLAPDISVAARLESGNQAVRDYYLLPKVDIGSSNISLAERNAAEFESYRFETLDYLYGMAARSRVRLAA | not soluble
10 | MGSDKIHHHHHHMPSVFQLQALCAAVEKPSLRQAAEALCKTQPALTHALKQLESQLGLPLFNRDGYRLVLTGSGERIYQLALKTLESHAELEQLAQHLARGDEDRVVLTVEASFDLTPILSALESVQAEFSQTEIVIQQEYLTGAVERVQQGHANLAITPLAPALSPGTRLDTQPLSQGQMLNVAAPRLLARYPSLCSILELRKEYQILVQDSGSGTLGLKLGVQSAQRHWYVNSFATKLSLIEQGMGWGRLPEWMLTEALAAGRLQLLELADFPARQRFDYHLVRRSASVPGPVATRLWQRLGGGAL | not soluble
11 | MGSDKIHHHHHHMPTPHLDTALSGPILDLERCILNAMPSIEQWLRNEWQTHAAPFYCSVDLRNSGFKLAPVDTNLFPGGFNNLNREFMPLCVQAMMAAIDKICTGARSVLLIPESHTRNIFYLQNLAALHAIMRHAGIHVRIGTLLPEITAPTALDLPGGNKLTLEPIQRKGNRVVLEDFDPCVVLLNNDLSTGTPAVLQNLEQTVIPPLHAGWTSRRKSHHFTAYDNVSQQFASLIGIDPWLINPYFASCGKINFREKKGEDCVANTVDEILHQIREKYAEYGVRKDPFVIVKADAGTYGMGIMTVKDGAQVRTLSRKQRNKMAVVKEGLEVTDIMVQEGVYTFENVDDAVAEPVIYMIDRYVVGGFYRVHTERGVDENLNAPGMHFVPLAFEDTCLLPDREAQPGCSANRFYAYGVIARLALLAAAQELEKSEARIEAIMA | not soluble
12 | MGSDKIHHHHHHMPTRSTPTERQKRLGAELRKMRLAAGAPTEYAAGLLGIDRTRLSNMESGIRPFSPDRVRTLACNYSCTDDGYIEALVAMTSTKERGWWERHRGILPSGLLDIAELEWHATRVRTAQVMHAPGLLQTEDYARGVFTAVLPPLTRLEVELRVAHRMERQQVLERPSPLPYIAYVHEAVLRMPYGGTEATQQQLKHLCSQSERENIEVRVIPTSTGGFPGAGHALLYADGAVPQLDTVQLDSAHGPEFTHADAQLTKYRSHLNWMDGAAMTSAASRDLIRKIARDL | not soluble
13 | MGSDKIHHHHHHMPVVDAAWEEWLSSNVARGCSPDSMIDAMVQAGFATDAARVAVHKTFGQNPANPAFAAAAATEAALAKAAPQTYQYDDPPVARGNLIRAYDRDVRVVMRCERPQVIVFADVLSPDECAEMIERSRHRLKRSTTVNPATGKEDVIRNRTSEGIWYQRGEDPFIERMDRRISSLMNWPVENGEGLQILHYGTTGEYRPHFDYFPPDQPGSAVHTAQGGQRVATLVIYLNDVPDGGETIFPEAGMSVAASQGGAVYFRYMNDRRQLDPLTLHGGAPVLAGDKWIMTKWMRERAYG | not soluble
14 | MGSDKIHHHHHHMQEIHTIMKHMDALIADPSAAAFKATLPFAELLEKLHNKKALFDAALAKSAERADAGRIIGKTSHIDALAYLLDISKSEAFRRTKRAEEHYGNPSPEPSSEELAKETPEEKLAREEKEKQDLAEQAEANRIAREHGISAEKQDTIRYELEKLNDNTSLSRASLRKLAMQEATSRTPEDLRNWTRNKVIRINPTAKDPLAAVKKRSLSIGRQDHDGGAKASLYLDAKGLALLKSLMSKAKPGHLLEDSLAEDKRTKPQRQYDAFADILHRAHSDLLPARSGVGTILVSLSAKDVTNLKASGPDHRYPTSTGIKLTPLEILRLGAAKYDFVTVLDSESGRPLHLARTQRTASLYQRLALFASELVCTREGCDSPFEDNEIHHIRSWLDGGPTDIENITNICPHDHGNNNDQRDGKDNMGHMNIDPTTGRVGYQPADRRKPMRFNNTAAAAESGGAQART | not soluble
15 | MGSDKIHHHHHHMQIKEFLISRRSEVVNNFYDNYYTQTDEYKLRLSAGEDEQSIRSLSTASCGMIIDVITGVKERDFENIGKRRFNDKTDIRKIHQHMSEIDKFIINSLLKWKETEDVFYTDADIIQFMLEIKDTLASIQQQLLEGFMQENRNQVMAQRKEIIQLSTRIIPITDSIGVLPIVGSLDDDRGYFMKEKAIESADKLNLDFIVIDFSSAVLKDDFATKHMEDMIQSFKLIGLIPILSGMQPSFAQRTIQVGSNISKLQSFGSLEQALTNLGL | not soluble
16 | MGSDKIHHHHHHMQINRLFEIIYILLENRTITAAELAERFEVSARTIYRDVEILAQGGMPIYMSKGKGGGISLLPDFILNKAVLTEEEKSEILSSLQAFNAVNLSKSETALSKLTSMLGAKNTDWIEVDFSSWGHFENDRAYFENIKTAIIEKKIITFMYASGKAEKLLREVLPLKLVFKGAAWYLYGYCTLRRDYRFFKLRRITELAVTDTGFEMKTPETIFAGQKLDTGTYLKAKLLISKTMAFRVYDEISSYEIDEKGDFVCRLYLPDIATLCTYAASFGEHCIILSPEQAVAEMKRRLQNSLKNYS | not soluble
17 | MGSDKIHHHHHHMQKSLEKCSAIDYLIVLGGRHVNETIYLADERKRLPSLVKHHRASPGRLIRECEIPPLFDVIISGEAEKLIAEIGELFSRCNQSPATFIAENLDMKTEGRWIADFPRIDNTLVSDGVPLKRDELPSVVGTFGVTASFDVFEGRMTSHIFSDTGPGCIYDCNFCSERRSIAGNIQDIQGAPRRLYNQLNETVSAVMQDHPSKGASAFVEDSIFLSGSPVAITQLCQLLEKAPLEVIFGGQFTIDQILRKKDLIQRLAKCGLRYIFIGLETLEPQEIGGMSKDVDGNKQTWKDRFLQALDFMAANHIDCGCALLFGLGEAHISRRNLLNGLIKLKQETGQPITLSANWAVRHPLRSSRESENENYLRRGTPEGELLEYFHRFGEASLEYPLPNVCAPQVGEVKEIILLLNEFEASDA | not soluble
